The series concerns the molecule itself.

B1: NgDapB (4-hydroxy-tetrahydrodipicolinate reductase from Neisseria gonorrhoeae) (enzyme, UniProt B4RR35 1-269, looked up)
chain: MIPLKIAIAGANGRMGRVLVEAVNNHPDTVLSGALEHSGSEALGLDAGYAVGLKTGIAISDDVDAVLAQSDVLIDFTRPEPTLKHLQKCVEKQVNIIIGTTGFDDAGKAAIRAAAEKTGIVFAANFSVGVNLTFHILDTVARVLNEGYDIEIIEGHHRHKVDAPSGTALRMGEVIAGALGRDLKQCAVYGREGHTGPRDPSTIGFATVRAGDIVGDHTALFATDGERVEITHKAGSRMTFAAGAVRAAVWVNGKTGLYDMQDVLGLNNR
One may read the stoichiometry N as the number of molecules, sites or subunits per partner or assembly. For the protein B1, the “stoichiometry N” value amounted to 4.

The record behind these values is publication PMC5793033 (ACS Omega, 2018).
